In patent US20240010697A1 (CYTIMM THERAPEUTICS, published 2024):
One block for each binder: values may come before it.

Assays:
[1] = target: T1, IL-2Rα in a human Fc fusion protein format (ACROBiosystems) (human, UniProt P01589 22-213, limits assumed); experiment: BLI (Octet QKe), IL-2Rα-Fc captured on AHC sensors, 1:1 fit
T1 construct: Bought reagent; also called CD25; not shown: human Fc (captured by anti-human IgG Fc)
T1 sequence (looked up): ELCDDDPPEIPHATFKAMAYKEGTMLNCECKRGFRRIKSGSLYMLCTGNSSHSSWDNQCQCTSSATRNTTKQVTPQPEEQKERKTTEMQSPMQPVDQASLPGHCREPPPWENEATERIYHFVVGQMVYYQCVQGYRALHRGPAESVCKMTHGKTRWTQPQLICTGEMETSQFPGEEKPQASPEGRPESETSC
From the text: (§1) IL-2Rα or IL-2Rβ in a human Fc fusion protein format (ACROBiosystems) were captured on anti-human IgG Fc capture (AHC) sensors. […] Dissociation was detected following transfer of sensors into wells containing buffer alone. Data were collected and analyzed by the Octet User Software. For analysis of the kinetics constants, a 1:1 curve fitting model was used.

[2] = target: T1, IL-2Rα in a human Fc fusion protein …; experiment: BLI (Octet QKe), IL-2Rα-Fc captured on AHC sensors, 1:1 fit; row printed a second time
From the text: as §1

[3] = target: T1, IL-2Rα in a human Fc fusion protein …; experiment: ELISA; EC50 on IL-2Rα over EC50 on IL-2Rβγ (reference)
Procedure: (§2) IL-2Rα and IL-2R βγ-human Fc fusion protein constructs (ACRO Biosystems) were each expressed and immobilized by anti-Human IgG Fc (abeam), which were then captured on the surface of wells of a microplate. […] Binding was detected using anti-His or anti-PEG antibody conjugated to horse radish peroxidase (HRP) (Genscript), which was incubated with substrate. The quantification of binding was measured with an absorbance-based microplate reader. Data were analyzed by Graphpas prism9 Software.

[4] = target: T1, IL-2Rα in a human Fc fusion protein …; experiment: ELISA; EC50 of rhIL2 (reference) over EC50 of ACT5211 on IL-2Rα
Procedure: as §2

[5] = target: T2, IL-2Rβγ-human Fc fusion protein construct (ACRO Biosystems) (human, UniProt P14784 27-239; P31785 23-262, limits assumed); experiment: ELISA; EC50 of rhIL2 (reference) over EC50 of ACT5211 on IL-2Rβγ
T2 construct: not shown: human Fc
T2 sequence (looked up) 1: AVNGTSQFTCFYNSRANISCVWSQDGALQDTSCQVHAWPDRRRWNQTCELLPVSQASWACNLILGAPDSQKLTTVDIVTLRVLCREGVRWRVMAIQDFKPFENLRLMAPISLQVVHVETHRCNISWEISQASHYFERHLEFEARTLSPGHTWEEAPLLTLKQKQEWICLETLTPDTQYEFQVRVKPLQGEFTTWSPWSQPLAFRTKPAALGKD
T2 sequence (looked up) 2: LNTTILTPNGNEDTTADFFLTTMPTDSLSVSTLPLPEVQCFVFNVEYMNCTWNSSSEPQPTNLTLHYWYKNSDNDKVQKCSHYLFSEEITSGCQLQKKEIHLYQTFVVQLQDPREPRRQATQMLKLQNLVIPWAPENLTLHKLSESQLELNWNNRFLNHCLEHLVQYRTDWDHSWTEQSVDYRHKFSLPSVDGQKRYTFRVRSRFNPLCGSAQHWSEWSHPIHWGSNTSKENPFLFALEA
Procedure: as §2

[6] = target: T1, IL-2Rα in a human Fc fusion protein …; experiment: ELISA; α/βγ EC50 ratio of rhIL2 (reference) over that of ACT5211
Procedure: as §2

[7] = target: T1, IL-2Rα in a human Fc fusion protein …; experiment: ELISA, receptor-Fc captured by anti-human IgG Fc, anti-His or anti-PEG HRP detection
Procedure: as §2

[8] = target: T2, IL-2Rβγ-human Fc fusion protein …; experiment: as above
Procedure: as §2

IL2R αβγ = target: T3, IL2R αβγ; experiment: biosensor kinetics, receptor as ligand on the sensor, IL-2 protein as sample, 1:1 Binding model (legend: Octet QKe; table heads give RU)
T3 construct: Cell-free IL-2Rαβγ on a biosensor; not the cell-borne receptors m18 and m19; also called IL-2Rαβγ (ligand on the sensor)

[9] = target: T1, IL-2Rα in a human Fc fusion protein …; experiment: as above
[10] = target: T2, IL-2Rβγ-human Fc fusion protein …; experiment: as above
IL2R β = target: T4, IL2R β; experiment: biosensor sensorgrams, receptor on the sensor, IL-2 protein in solution (legend: Octet QKe); axes without units, concentrations not given
T4 construct: also called IL-2Rβ in a human Fc fusion protein format (ACROBiosystems); CD122; not shown: The human IgG Fc carrier and any linker of the ACROBiosystems fusion
T4 chain: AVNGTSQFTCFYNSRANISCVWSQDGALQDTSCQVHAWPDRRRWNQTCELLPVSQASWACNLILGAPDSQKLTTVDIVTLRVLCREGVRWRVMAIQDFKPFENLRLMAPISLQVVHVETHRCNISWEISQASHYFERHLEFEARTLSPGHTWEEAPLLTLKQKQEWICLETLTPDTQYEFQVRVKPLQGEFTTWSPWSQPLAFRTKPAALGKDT
From the text: as §1

[11] = target: T1, IL-2Rα in a human Fc fusion protein …; experiment: ELISA, receptor-Fc captured by anti-human IgG Fc on the plate, detection with anti-His or anti-PEG antibody-HRP; unit from the axis (Table 4 of the text prints 5.1)
Procedure: as §2

[12] = target: T2, IL-2Rβγ-human Fc fusion protein …; experiment: ELISA, receptor-Fc captured by anti-human IgG Fc on the plate, detection with anti-His or anti-PEG antibody-HRP; unit from the axis (Table 4 of the text prints 21.7)
Procedure: as §2

B2: ACT5231, IL-2 mutein Y31C + V69A + Q74P (PEG20K) (ligand)
chain: APTSSSTKKTQLQLEHLLLDLQMILNGINNCKNPKLTRMLTFKFYMPKKATELKHLQCLEEELKPLEEALNLAPSKNFHLRPRDLISNINVIVLELKGSETTFMCEYADETATIVEFLNRWITFSQSIISTLT
modifications: maleimide-PEG 20K on Cys 31
notes: rhIL-2 (C125S) background; also called Y31C - PEG20 + V69A + Q74P; not shown: His-Tag
Kd [1]: 0.00909 µM | koff [1]: 0.00431 s⁻¹ | kon [1]: 474000 M⁻¹ s⁻¹

B3: ACT522S1, IL-2 mutein Y31C + N30S (PEG20K) (ligand)
chain: APTSSSTKKTQLQLEHLLLDLQMILNGINSCKNPKLTRMLTFKFYMPKKATELKHLQCLEEELKPLEEVLNLAQSKNFHLRPRDLISNINVIVLELKGSETTFMCEYADETATIVEFLNRWITFSQSIISTLT
modifications: maleimide-PEG 20K on Cys 31
notes: rhIL-2 (C125S) background; also called Y31C - PEG20 + N30S; not shown: His-Tag
Kd [1]: 0.0473 µM | koff [1]: 0.0302 s⁻¹ | kon [1]: 639000 M⁻¹ s⁻¹

B5: ACT5211, IL-2 mutein Y31C + L18M + L19S (PEG20K) (ligand)
chain: APTSSSTKKTQLQLEHLMSDLQMILNGINNCKNPKLTRMLTFKFYMPKKATELKHLQCLEEELKPLEEVLNLAQSKNFHLRPRDLISNINVIVLELKGSETTFMCEYADETATIVEFLNRWITFSQSIISTLT
modifications: maleimide-PEG 20K on Cys 31
notes: rhIL-2 (C125S) background; also called Y31C - PEG20 + L18M + L19S; Y31C-PEG20+L18ML19S; not shown: His-Tag
Ratio (α/βγ) of EC50 [3]: 0.3 | Kd [1]: 0.0915 µM | koff [1]: 0.0388 s⁻¹ | kon [1]: 424000 M⁻¹ s⁻¹ | EC50 ratio rhIL2/ACT5211 [4]: 6.8 | EC50 ratio rhIL2/ACT5211 [5]: 0.1 | ratio of the (α/βγ) EC50 ratios, rhIL2/ACT5211 [6]: 67.7 | EC50 [7]: 5.1 ng/mL | EC50 [8]: 21.7 ng/mL | Kd (IL2R αβγ): 0.000289 µM | koff (IL2R αβγ): 0.000761 s⁻¹ | kon (IL2R αβγ): 2.63e+06 M⁻¹ s⁻¹ | Kd [9]: 0.25 µM | koff [9]: 0.139 s⁻¹ | kon [9]: 555000 M⁻¹ s⁻¹ | Kd [10]: 0.0151 µM | koff [10]: 0.00147 s⁻¹ | kon [10]: 97200 M⁻¹ s⁻¹ | binding result (IL2R β): no binding (tested: not printed) | EC50 [11]: 5.01 ng/mL | EC50 [12]: 2.03 ng/mL

B6: ACT5271, IL-2 mutein Y31C + V69A + Q74P + N30S (PEG20K) (ligand)
chain: APTSSSTKKTQLQLEHLLLDLQMILNGINSCKNPKLTRMLTFKFYMPKKATELKHLQCLEEELKPLEEALNLAPSKNFHLRPRDLISNINVIVLELKGSETTFMCEYADETATIVEFLNRWITFSQSIISTLT
modifications: maleimide-PEG 20K on Cys 31
notes: rhIL-2 (C125S) background; also called Y31C - PEG20 + V69A + Q74P + N30S; not shown: His-Tag
Kd [1]: 0.00914 µM | koff [1]: 0.0029 s⁻¹ | kon [1]: 318000 M⁻¹ s⁻¹

Next, values leading:

Kd [1]: 0.00907 µM | koff [1]: 0.0032 s⁻¹ | kon [1]: 355000 M⁻¹ s⁻¹
B1: ACT5291, IL-2 mutein Y31C + V69A + Q74P + V91K (PEG20K) (ligand)
chain: APTSSSTKKTQLQLEHLLLDLQMILNGINNCKNPKLTRMLTFKFYMPKKATELKHLQCLEEELKPLEEALNLAPSKNFHLRPRDLISNINKIVLELKGSETTFMCEYADETATIVEFLNRWITFSQSIISTLT
modifications: maleimide-PEG 20K on Cys 31
notes: rhIL-2 (C125S) background; also called Y31C - PEG20 + V69A + Q74P + V91K; not shown: His-Tag

Kd [1]: 0.061 µM | koff [1]: 0.0232 s⁻¹ | kon [1]: 379000 M⁻¹ s⁻¹ | Kd [2]: 0.061 µM | koff [2]: 0.0232 s⁻¹ | kon [2]: 379000 M⁻¹ s⁻¹
B4: IL-2 mutein Y31C - PEG20 + N30G (ligand)
chain: APTSSSTKKTQLQLEHLLLDLQMILNGINGCKNPKLTRMLTFKFYMPKKATELKHLQCLEEELKPLEEVLNLAQSKNFHLRPRDLISNINVIVLELKGSETTFMCEYADETATIVEFLNRWITFSQSIISTLT
modifications: maleimide-PEG 20K on Cys 31
notes: not shown: His-Tag
